This test concerns the target T1, human mdm2 N-terminal domain, mdm2(3-109) (human, UniProt Q00987 3-109).
T1 construct: Expressed in E. coli BL21(DE3) from a pLM1 vector; Uniformly 15N-labelled (or 15N,13C-labelled) where it is the observed species in NMR; unlabelled when used as titrant and when immobilised on the CM5 chip
The test is described as follows: SPR (BIAcore 2000), mdm2(3-109) amine-coupled on CM5, peptide injected at 1.5625-50 µM, equilibrium fit.

Where no end group is shown, it is not given here.

The Kd is the constant that tells how readily two partners part at equilibrium. Higher therefore signals a looser complex.

T1 sequence (Q00987 3-109 limits assumed): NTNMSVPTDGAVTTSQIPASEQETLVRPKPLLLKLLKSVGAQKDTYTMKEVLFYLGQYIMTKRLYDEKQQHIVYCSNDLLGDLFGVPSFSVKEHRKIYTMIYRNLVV

B1: native p53 TAD(49-54) peptide (peptide)
peptide: DIEQWF-NH2
notes: Synthetic, solid phase; also called p53 (49-54); p53(49-54) peptide
The molecule B1 registered a Kd of 25 µM.

For the origin of these results see patent US20090030181A1 (KOREA RESEARCH INSTITUTE OF BIOSCIENCE AND BIOTECHNOLOGY, published 2009).
